Results reported in the supplement of paper PMC10065799, “High-throughput profiling of sequence recognition by tyrosine kinases and SH2 domains using bacterial peptide display” (eLife, 2023).

What was measured:
Jak2 = Jak2 (UniProt O60674); assay: phosphorylation enrichment, bacterial display (enrichment ratio); higher = better substrate or ligand; peptides without Tyr show the background
Fes = Fes (UniProt P07332); assay: as above
Hck = Hck (UniProt P08631); assay: as above
MERTK = MERTK (UniProt Q12866); assay: as above
c-Src = assay: as above
c-Abl (mouse) = assay: as above
EPHB2 = EPHB2 (UniProt P29323); assay: as above
FGFR3 = FGFR3 (UniProt P22607); assay: as above
Fer (mouse) = assay: as above
Fyn = Fyn (UniProt P06241); assay: as above
EPHB1 = EPHB1 (UniProt P54762); assay: as above
FGFR1 = FGFR1 (UniProt P11362); assay: as above
AncSZ = assay: as above
SHP2-C SH2 = assay: SH2 binding enrichment of the phosphorylated peptide, bacterial display (enrichment ratio); higher = better substrate or ligand; peptides without Tyr show the background
Grb2 SH2 = Grb2 SH2 (UniProt P62993); assay: as above
c-Src SH2 = assay: as above
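Throughout, for SH2 binding enrichment of the phosphorylated peptide, bacterial display: peptide library displayed on the E. coli surface as eCPX fusions, selected cells deep-sequenced, score is each peptide's frequency after selection divided by its frequency in the input.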
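Throughout, for phosphorylation enrichment, bacterial display: 11-residue human phosphosite peptides and single-mutation variants displayed on the E. coli surface, counted by deep sequencing, each peptide's frequency after selection divided by its frequency in the unselected input library; frequency after pTyr selection over input frequency; kinase dosed for 20-30% of maximal phosphorylation in three min.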

Chain of FGFR3 (P22607 whole entry, looked up): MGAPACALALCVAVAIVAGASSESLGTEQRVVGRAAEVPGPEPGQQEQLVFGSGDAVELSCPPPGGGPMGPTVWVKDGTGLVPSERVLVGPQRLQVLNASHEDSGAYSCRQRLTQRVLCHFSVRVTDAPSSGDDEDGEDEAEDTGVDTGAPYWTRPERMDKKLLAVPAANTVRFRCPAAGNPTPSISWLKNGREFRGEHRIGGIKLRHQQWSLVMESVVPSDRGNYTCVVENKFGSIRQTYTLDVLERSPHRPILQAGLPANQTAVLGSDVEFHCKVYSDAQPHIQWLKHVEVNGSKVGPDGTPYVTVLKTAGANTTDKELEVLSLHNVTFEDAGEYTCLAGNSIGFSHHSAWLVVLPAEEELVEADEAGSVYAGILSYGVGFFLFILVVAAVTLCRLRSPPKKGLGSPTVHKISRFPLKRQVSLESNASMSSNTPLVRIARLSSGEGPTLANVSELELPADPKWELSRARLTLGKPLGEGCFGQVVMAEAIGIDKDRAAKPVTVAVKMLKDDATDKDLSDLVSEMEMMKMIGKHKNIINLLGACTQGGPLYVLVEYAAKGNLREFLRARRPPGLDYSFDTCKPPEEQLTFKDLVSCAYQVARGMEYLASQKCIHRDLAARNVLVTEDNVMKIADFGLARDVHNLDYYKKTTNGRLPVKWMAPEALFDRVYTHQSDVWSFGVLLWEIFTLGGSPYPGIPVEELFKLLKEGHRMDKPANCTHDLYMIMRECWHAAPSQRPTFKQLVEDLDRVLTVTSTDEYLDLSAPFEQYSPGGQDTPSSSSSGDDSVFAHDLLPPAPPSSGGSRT
Chain of MERTK (Q12866 whole entry, looked up): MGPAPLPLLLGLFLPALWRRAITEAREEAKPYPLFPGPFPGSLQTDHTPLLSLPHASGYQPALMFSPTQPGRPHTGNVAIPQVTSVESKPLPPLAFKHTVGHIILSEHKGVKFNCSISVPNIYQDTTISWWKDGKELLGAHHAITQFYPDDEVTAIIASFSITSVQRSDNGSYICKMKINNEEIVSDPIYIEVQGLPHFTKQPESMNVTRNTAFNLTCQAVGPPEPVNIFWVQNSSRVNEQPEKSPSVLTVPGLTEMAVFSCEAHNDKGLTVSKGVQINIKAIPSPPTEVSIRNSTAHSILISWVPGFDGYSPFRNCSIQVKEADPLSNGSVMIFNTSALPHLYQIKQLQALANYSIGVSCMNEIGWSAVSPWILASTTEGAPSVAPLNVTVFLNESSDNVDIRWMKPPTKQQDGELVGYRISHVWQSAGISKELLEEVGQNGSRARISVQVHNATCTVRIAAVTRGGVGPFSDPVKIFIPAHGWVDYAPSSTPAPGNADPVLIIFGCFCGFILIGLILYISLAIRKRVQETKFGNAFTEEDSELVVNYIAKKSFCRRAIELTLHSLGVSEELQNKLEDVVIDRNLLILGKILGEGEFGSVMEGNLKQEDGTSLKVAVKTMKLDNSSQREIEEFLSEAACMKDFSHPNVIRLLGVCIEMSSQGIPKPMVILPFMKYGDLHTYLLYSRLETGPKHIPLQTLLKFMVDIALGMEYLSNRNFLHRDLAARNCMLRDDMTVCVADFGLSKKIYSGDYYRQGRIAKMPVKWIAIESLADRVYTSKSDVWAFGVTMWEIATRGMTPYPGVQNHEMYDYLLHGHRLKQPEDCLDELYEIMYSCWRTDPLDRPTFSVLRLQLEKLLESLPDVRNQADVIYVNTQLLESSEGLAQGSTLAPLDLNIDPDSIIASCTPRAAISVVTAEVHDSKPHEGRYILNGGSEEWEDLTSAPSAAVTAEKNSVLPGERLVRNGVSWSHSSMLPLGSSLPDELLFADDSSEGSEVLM
Chain of Jak2 (O60674 whole entry, looked up): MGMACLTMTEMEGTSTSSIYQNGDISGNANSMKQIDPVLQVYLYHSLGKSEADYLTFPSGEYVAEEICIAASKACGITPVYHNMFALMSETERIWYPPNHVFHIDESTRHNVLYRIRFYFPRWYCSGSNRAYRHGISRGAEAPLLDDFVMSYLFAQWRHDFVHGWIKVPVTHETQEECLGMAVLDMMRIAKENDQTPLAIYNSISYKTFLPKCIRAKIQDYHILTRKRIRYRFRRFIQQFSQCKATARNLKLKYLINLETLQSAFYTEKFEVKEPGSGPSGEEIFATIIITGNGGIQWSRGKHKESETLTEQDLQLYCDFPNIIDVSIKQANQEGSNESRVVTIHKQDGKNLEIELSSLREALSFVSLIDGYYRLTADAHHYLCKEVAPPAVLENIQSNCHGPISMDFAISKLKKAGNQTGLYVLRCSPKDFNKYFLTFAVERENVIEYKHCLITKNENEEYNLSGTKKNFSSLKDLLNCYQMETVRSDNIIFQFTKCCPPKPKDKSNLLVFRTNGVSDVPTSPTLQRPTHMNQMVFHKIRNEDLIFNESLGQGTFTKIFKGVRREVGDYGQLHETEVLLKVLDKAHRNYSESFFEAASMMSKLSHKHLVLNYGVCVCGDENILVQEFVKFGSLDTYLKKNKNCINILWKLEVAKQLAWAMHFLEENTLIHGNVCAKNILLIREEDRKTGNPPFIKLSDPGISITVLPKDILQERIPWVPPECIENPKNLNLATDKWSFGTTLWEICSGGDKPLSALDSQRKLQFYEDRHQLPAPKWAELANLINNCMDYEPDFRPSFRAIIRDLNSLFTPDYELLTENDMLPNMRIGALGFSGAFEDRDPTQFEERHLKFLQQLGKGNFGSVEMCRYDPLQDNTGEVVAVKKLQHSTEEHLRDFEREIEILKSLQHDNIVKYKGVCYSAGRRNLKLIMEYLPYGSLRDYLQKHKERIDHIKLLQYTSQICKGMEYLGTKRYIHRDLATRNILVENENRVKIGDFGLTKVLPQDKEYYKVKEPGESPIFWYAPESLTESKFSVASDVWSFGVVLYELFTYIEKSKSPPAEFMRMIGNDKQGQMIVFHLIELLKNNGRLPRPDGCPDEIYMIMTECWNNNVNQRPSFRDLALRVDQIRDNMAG
Chain of Grb2 SH2 (P62993 whole entry, looked up): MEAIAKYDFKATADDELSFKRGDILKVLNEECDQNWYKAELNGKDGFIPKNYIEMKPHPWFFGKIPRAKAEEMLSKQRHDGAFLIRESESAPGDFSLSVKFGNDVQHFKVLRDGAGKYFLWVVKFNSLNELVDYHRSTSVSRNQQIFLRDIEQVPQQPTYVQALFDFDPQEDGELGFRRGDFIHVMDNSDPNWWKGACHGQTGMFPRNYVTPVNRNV
Chain of EPHB1 (P54762 whole entry, looked up): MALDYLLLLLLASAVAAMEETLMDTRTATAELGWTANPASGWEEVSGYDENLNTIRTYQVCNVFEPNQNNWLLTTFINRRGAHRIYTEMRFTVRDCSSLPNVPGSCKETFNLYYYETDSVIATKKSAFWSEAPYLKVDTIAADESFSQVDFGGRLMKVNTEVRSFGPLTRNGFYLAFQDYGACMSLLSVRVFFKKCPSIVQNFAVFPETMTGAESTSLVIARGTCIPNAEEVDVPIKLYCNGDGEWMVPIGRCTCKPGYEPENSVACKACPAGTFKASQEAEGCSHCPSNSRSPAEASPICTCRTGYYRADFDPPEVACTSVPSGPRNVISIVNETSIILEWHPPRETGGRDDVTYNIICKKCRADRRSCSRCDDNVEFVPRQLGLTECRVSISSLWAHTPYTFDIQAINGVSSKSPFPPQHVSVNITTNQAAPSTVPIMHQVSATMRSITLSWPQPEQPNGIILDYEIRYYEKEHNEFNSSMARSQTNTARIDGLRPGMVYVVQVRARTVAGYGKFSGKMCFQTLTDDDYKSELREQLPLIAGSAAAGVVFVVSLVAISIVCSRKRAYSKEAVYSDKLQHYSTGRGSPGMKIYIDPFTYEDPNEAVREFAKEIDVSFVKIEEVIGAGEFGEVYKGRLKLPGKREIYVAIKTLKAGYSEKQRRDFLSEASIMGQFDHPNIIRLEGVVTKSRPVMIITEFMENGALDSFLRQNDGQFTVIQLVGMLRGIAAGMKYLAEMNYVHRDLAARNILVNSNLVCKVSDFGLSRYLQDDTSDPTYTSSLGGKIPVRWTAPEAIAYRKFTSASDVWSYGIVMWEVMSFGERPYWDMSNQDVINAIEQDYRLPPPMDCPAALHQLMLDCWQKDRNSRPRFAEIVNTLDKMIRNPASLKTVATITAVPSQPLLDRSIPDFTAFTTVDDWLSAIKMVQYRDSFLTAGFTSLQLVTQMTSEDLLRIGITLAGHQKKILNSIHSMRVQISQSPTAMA
Chain of Fyn (P06241 whole entry, looked up): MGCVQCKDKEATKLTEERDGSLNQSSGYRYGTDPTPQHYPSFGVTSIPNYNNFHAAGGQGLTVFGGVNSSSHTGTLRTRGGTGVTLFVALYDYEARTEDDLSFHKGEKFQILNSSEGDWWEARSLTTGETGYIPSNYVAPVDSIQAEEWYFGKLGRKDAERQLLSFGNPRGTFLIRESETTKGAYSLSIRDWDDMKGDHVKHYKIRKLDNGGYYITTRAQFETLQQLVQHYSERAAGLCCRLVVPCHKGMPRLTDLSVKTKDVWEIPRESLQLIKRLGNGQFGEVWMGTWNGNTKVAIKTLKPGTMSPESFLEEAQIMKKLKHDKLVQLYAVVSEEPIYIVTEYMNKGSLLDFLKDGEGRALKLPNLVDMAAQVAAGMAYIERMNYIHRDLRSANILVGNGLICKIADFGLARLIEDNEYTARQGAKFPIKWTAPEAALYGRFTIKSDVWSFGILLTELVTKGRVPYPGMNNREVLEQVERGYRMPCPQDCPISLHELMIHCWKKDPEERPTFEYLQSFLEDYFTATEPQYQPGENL

Sequence | phosphorylation enrichment (Jak2) | phosphorylation enrichment (Fes) | phosphorylation enrichment (Hck) | phosphorylation enrichment (MERTK) | phosphorylation enrichment (c-Src) | phosphorylation enrichment (c-Abl (mouse)) | phosphorylation enrichment (EPHB2) | phosphorylation enrichment (FGFR3) | phosphorylation enrichment (Fer (mouse)) | phosphorylation enrichment (Fyn) | phosphorylation enrichment (EPHB1) | phosphorylation enrichment (FGFR1) | phosphorylation enrichment (AncSZ) | SH2 binding enrichment (SHP2-C SH2) | SH2 binding enrichment (Grb2 SH2) | SH2 binding enrichment (c-Src SH2)
SGRRRYTIAAL [TTR_Y125_P122R] | 0.51 | 0.622 | 0.517 | 0.601 | 0.736 | 0.512 | 0.581 | 0.598 | 0.6 | 0.61 | 0.615 | 0.547 | 0.602 | 0.373 | 0.58 | 0.468
SHNKYYMLVAR [MFSD8_Y134] | 1.14 | 0.939 | 0.658 | 2.9 | 0.487 | 0.6 | 0.675 | 3.28 | 0.486 | 0.494 | 0.943 | 5.4 | 0.825 | 15.5 | 1.77 | 1.92
SIDLGYHKDLQ [NF1_Y1169_G1166D] | 0.856 | 0.777 | 0.454 | 0.531 | 0.552 | 0.557 | 0.478 | 0.485 | 0.503 | 0.51 | 0.46 | 0.607 | 1.17 | 0.486 | 0.661 | 0.544
SIKDKYVMALY [KCNH2_Y611_T613M] | 0.648 | 0.734 | 0.59 | 0.441 | 0.422 | 0.599 | 0.481 | 0.547 | 0.45 | 0.483 | 0.505 | 0.638 | 0.639 | 0.679 | 0.836 | 0.514
SISFDYCRVPM [BST2_Y8_T4I_YF] | 1.43 | 1.15 | 0.546 | 0.547 | 0.528 | 0.785 | 1.36 | 1.39 | 0.533 | 0.463 | 2.13 | 1.43 | 1.65 | 0.65 | 0.726 | 0.39
SKEPYYVHCIK [MYO1D_Y586_R588H] | 0.677 | 0.932 | 0.557 | 0.559 | 0.543 | 0.615 | 0.704 | 0.664 | 0.498 | 0.58 | 0.622 | 0.77 | 0.965 | 1.04 | 1.16 | 0.81
SKGYAYVHFDS [PABPC5_Y149] | 1.05 | 1.25 | 0.53 | 0.37 | 0.479 | 0.953 | 0.561 | 0.749 | 0.584 | 0.449 | 0.575 | 0.632 | 1.22 | 29.3 | 0.991 | 11.1
SLAARYFNWVS [FLT4_Y1230_YF] | 0.935 | 1.26 | 0.532 | 0.636 | 0.431 | 0.822 | 0.698 | 0.718 | 0.479 | 0.494 | 0.586 | 0.555 | 1.15 | 1.39 | 2.68 | 1.15
SLALFYRNVFH [RBL1_Y792_K794N_YF] | 1.02 | 1.19 | 0.5 | 0.422 | 0.409 | 0.688 | 1.02 | 0.649 | 0.497 | 0.49 | 0.573 | 0.447 | 0.962 | 0.873 | 0.892 | 0.518
SLDLSYFPTSS [EMD_Y181_YF] | 2.93 | 0.793 | 0.432 | 0.56 | 0.502 | 0.632 | 0.513 | 0.635 | 0.353 | 0.496 | 0.426 | 0.59 | 0.879 | 1.1 | 0.8 | 0.414
SLDLSYFTTSS [EMD_Y181_P183T_YF] | 1.04 | 0.836 | 0.451 | 0.371 | 0.382 | 0.644 | 0.475 | 0.605 | 0.37 | 0.38 | 0.468 | 0.499 | 0.876 | 0.675 | 0.803 | 0.55
SLGKGYSDGGC [MC4R_Y35] | 0.719 | 0.773 | 0.427 | 0.392 | 0.387 | 0.603 | 0.473 | 0.585 | 0.399 | 0.47 | 0.456 | 0.576 | 0.636 | 0.678 | 0.763 | 0.632
SLMNQYVNKKF [RAB7A_Y28] | 0.44 | 0.579 | 0.427 | 0.315 | 0.342 | 0.447 | 0.373 | 0.396 | 0.398 | 0.383 | 0.291 | 0.381 | 0.474 | 0.697 | 0.877 | 0.442
SNPAFYVLEGV [INPPL1_Y987_N982S_YF] | 0.765 | 1.06 | 0.441 | 0.517 | 0.732 | 0.646 | 0.559 | 0.63 | 0.427 | 0.648 | 0.469 | 0.509 | 0.818 | 0.752 | 0.919 | 0.714
SNSATYSGSVA [PDLIM5_Y382] | 0.48 | 0.624 | 0.56 | 0.516 | 0.498 | 0.576 | 0.497 | 0.483 | 0.392 | 0.561 | 0.347 | 0.432 | 0.748 | 0.572 | 0.691 | 0.39
SPFAVYLFFTF [RPGRIP1_Y826_R827L_YF] | 0.891 | 0.925 | 0.361 | 0.34 | 0.425 | 0.754 | 0.744 | 0.63 | 0.335 | 0.477 | 0.434 | 0.467 | 0.99 | 0.729 | 1.09 | 0.519
